# Measured values reported in patent US20200270325A1 (Merck Sharp & Dohme, published 2020).
# Numbered stars: 1 amine (or outer) side, 2 acyl side, 3 side chain; on linkers, the order of the positions; unused ones are H or OH. Square brackets hold non-standard residues; d marks the D form. Side chains are listed from the residue outwards. Ends that are not written are not given here. * marks the point of attachment. C18 diacid = O=C(O)CCCCCCCCCCCCCCCCC(=O)*; C16 diacid = O=C(O)CCCCCCCCCCCCCCC(=O)*; γGlu = O=C(O)[C@H](CCC(=O)[*:2])N[*:1]; Met(O2) = CS(=O)(=O)CC[C@H](N)C(=O)O; αMeD = C[C@](N)(CC(=O)O)C(=O)O; AEEA = NCCOCCOCC(=O)O; Aib = CC(C)(N)C(=O)O
# B1: TP737 (peptide)
# peptide: H[Aib]QGTFTSDYSKYLD[Aib]RAAQDFVK([AEEA-AEEA-γGlu-C18 diacid])WL[Met(O2)]DT-OH
# modifications: N-terminus assumed
# SMILES: CC(C)C[C@H](NC(=O)[C@H](Cc1c[nH]c2ccccc12)NC(=O)[C@H](CCCCNC(=O)COCCOCCNC(=O)COCCOCCNC(=O)CC[C@H](NC(=O)CCCCCCCCCCCCCCCCC(=O)O)C(=O)O)NC(=O)[C@@H](NC(=O)[C@H](Cc1ccccc1)NC(=O)[C@H](CC(=O)O)NC(=O)[C@H](CCC(N)=O)NC(=O)[C@H](C)NC(=O)[C@H](C)NC(=O)[C@H](CCCNC(=N)N)NC(=O)C(C)(C)NC(=O)[C@H](CC(=O)O)NC(=O)[C@H](CC(C)C)NC(=O)[C@H](Cc1ccc(O)cc1)NC(=O)[C@H](CCCCN)NC(=O)[C@H](CO)NC(=O)[C@H](Cc1ccc(O)cc1)NC(=O)[C@H](CC(=O)O)NC(=O)[C@H](CO)NC(=O)[C@@H](NC(=O)[C@H](Cc1ccccc1)NC(=O)[C@@H](NC(=O)CNC(=O)[C@H](CCC(N)=O)NC(=O)C(C)(C)NC(=O)[C@@H](N)Cc1c[nH]cn1)[C@@H](C)O)[C@@H](C)O)C(C)C)C(=O)N[C@@H](CCS(C)(=O)=O)C(=O)N[C@@H](CC(=O)O)C(=O)N[C@H](C(=O)O)[C@@H](C)O
# B2: TP813 (peptide)
# peptide: H[Aib]QGTFTSDYSKYLDARAAQEFVK([AEEA-AEEA-γGlu-C16 diacid])WL[Met(O2)]DT-NH2
# modifications: N-terminus assumed
# SMILES: CC(C)C[C@H](NC(=O)[C@H](Cc1ccc(O)cc1)NC(=O)[C@H](CCCCN)NC(=O)[C@H](CO)NC(=O)[C@H](Cc1ccc(O)cc1)NC(=O)[C@H](CC(=O)O)NC(=O)[C@H](CO)NC(=O)[C@@H](NC(=O)[C@H](Cc1ccccc1)NC(=O)[C@@H](NC(=O)CNC(=O)[C@H](CCC(N)=O)NC(=O)C(C)(C)NC(=O)[C@@H](N)Cc1c[nH]cn1)[C@@H](C)O)[C@@H](C)O)C(=O)N[C@@H](CC(=O)O)C(=O)N[C@@H](C)C(=O)N[C@@H](CCCNC(=N)N)C(=O)N[C@@H](C)C(=O)N[C@@H](C)C(=O)N[C@@H](CCC(N)=O)C(=O)N[C@@H](CCC(=O)O)C(=O)N[C@@H](Cc1ccccc1)C(=O)N[C@H](C(=O)N[C@@H](CCCCNC(=O)COCCOCCNC(=O)COCCOCCNC(=O)CC[C@H](NC(=O)CCCCCCCCCCCCCCC(=O)O)C(=O)O)C(=O)N[C@@H](Cc1c[nH]c2ccccc12)C(=O)N[C@@H](CC(C)C)C(=O)N[C@@H](CCS(C)(=O)=O)C(=O)N[C@@H](CC(=O)O)C(=O)N[C@H](C(N)=O)[C@@H](C)O)C(C)C
# B3: TP713 (peptide)
# peptide: H[Aib]QGTFTSDYSKYLDARAAK([AEEA-AEEA-γGlu-C18 diacid])EFVQWL[Met(O2)][αMeD]
# modifications: not fully specified (C-terminus); printed as HUQGTFTSDYSKYLDARAAK(PEG2PEG2γEC18-OH)EFVQWL2αMDT-NH2
# B4: TP735 (peptide)
# peptide: H[Aib]QGTFTSDYSKYLDARAAK([AEEA-AEEA-γGlu-C18 diacid])DFVQWL[Met(O2)][αMeD]T-OH
# modifications: N-terminus assumed
# SMILES: CC(C)C[C@H](NC(=O)[C@H](Cc1ccc(O)cc1)NC(=O)[C@H](CCCCN)NC(=O)[C@H](CO)NC(=O)[C@H](Cc1ccc(O)cc1)NC(=O)[C@H](CC(=O)O)NC(=O)[C@H](CO)NC(=O)[C@@H](NC(=O)[C@H](Cc1ccccc1)NC(=O)[C@@H](NC(=O)CNC(=O)[C@H](CCC(N)=O)NC(=O)C(C)(C)NC(=O)[C@@H](N)Cc1c[nH]cn1)[C@@H](C)O)[C@@H](C)O)C(=O)N[C@@H](CC(=O)O)C(=O)N[C@@H](C)C(=O)N[C@@H](CCCNC(=N)N)C(=O)N[C@@H](C)C(=O)N[C@@H](C)C(=O)N[C@@H](CCCCNC(=O)COCCOCCNC(=O)COCCOCCNC(=O)CC[C@H](NC(=O)CCCCCCCCCCCCCCCCC(=O)O)C(=O)O)C(=O)N[C@@H](CC(=O)O)C(=O)N[C@@H](Cc1ccccc1)C(=O)N[C@H](C(=O)N[C@@H](CCC(N)=O)C(=O)N[C@@H](Cc1c[nH]c2ccccc12)C(=O)N[C@@H](CC(C)C)C(=O)N[C@@H](CCS(C)(=O)=O)C(=O)N[C@@](C)(CC(=O)O)C(=O)N[C@H](C(=O)O)[C@@H](C)O)C(C)C
# B5: TP814 (peptide)
# peptide: H[Aib]QGTFTSDYSKYLDARAAK([AEEA-AEEA-γGlu-C16 diacid])DFVQWL[Met(O2)]ET-NH2
# modifications: N-terminus assumed
# SMILES: CC(C)C[C@H](NC(=O)[C@H](Cc1ccc(O)cc1)NC(=O)[C@H](CCCCN)NC(=O)[C@H](CO)NC(=O)[C@H](Cc1ccc(O)cc1)NC(=O)[C@H](CC(=O)O)NC(=O)[C@H](CO)NC(=O)[C@@H](NC(=O)[C@H](Cc1ccccc1)NC(=O)[C@@H](NC(=O)CNC(=O)[C@H](CCC(N)=O)NC(=O)C(C)(C)NC(=O)[C@@H](N)Cc1c[nH]cn1)[C@@H](C)O)[C@@H](C)O)C(=O)N[C@@H](CC(=O)O)C(=O)N[C@@H](C)C(=O)N[C@@H](CCCNC(=N)N)C(=O)N[C@@H](C)C(=O)N[C@@H](C)C(=O)N[C@@H](CCCCNC(=O)COCCOCCNC(=O)COCCOCCNC(=O)CC[C@H](NC(=O)CCCCCCCCCCCCCCC(=O)O)C(=O)O)C(=O)N[C@@H](CC(=O)O)C(=O)N[C@@H](Cc1ccccc1)C(=O)N[C@H](C(=O)N[C@@H](CCC(N)=O)C(=O)N[C@@H](Cc1c[nH]c2ccccc12)C(=O)N[C@@H](CC(C)C)C(=O)N[C@@H](CCS(C)(=O)=O)C(=O)N[C@@H](CCC(=O)O)C(=O)N[C@H](C(N)=O)[C@@H](C)O)C(C)C
# B6: TP588 (peptide)
# peptide: H[Aib]QGTFTSDYSKYLD[Aib]RAAK([AEEA-AEEA-γGlu-C20‑OH])DFVQWL[Met(O2)][αMeD]T-NH2
# B7: TP736 (peptide)
# peptide: H[Aib]QGTFTSDYSKYLDARAAK([AEEA-AEEA-γGlu-C18 diacid])DFVQWL[Met(O2)]DT-OH
# modifications: N-terminus assumed
# SMILES: CC(C)C[C@H](NC(=O)[C@H](Cc1ccc(O)cc1)NC(=O)[C@H](CCCCN)NC(=O)[C@H](CO)NC(=O)[C@H](Cc1ccc(O)cc1)NC(=O)[C@H](CC(=O)O)NC(=O)[C@H](CO)NC(=O)[C@@H](NC(=O)[C@H](Cc1ccccc1)NC(=O)[C@@H](NC(=O)CNC(=O)[C@H](CCC(N)=O)NC(=O)C(C)(C)NC(=O)[C@@H](N)Cc1c[nH]cn1)[C@@H](C)O)[C@@H](C)O)C(=O)N[C@@H](CC(=O)O)C(=O)N[C@@H](C)C(=O)N[C@@H](CCCNC(=N)N)C(=O)N[C@@H](C)C(=O)N[C@@H](C)C(=O)N[C@@H](CCCCNC(=O)COCCOCCNC(=O)COCCOCCNC(=O)CC[C@H](NC(=O)CCCCCCCCCCCCCCCCC(=O)O)C(=O)O)C(=O)N[C@@H](CC(=O)O)C(=O)N[C@@H](Cc1ccccc1)C(=O)N[C@H](C(=O)N[C@@H](CCC(N)=O)C(=O)N[C@@H](Cc1c[nH]c2ccccc12)C(=O)N[C@@H](CC(C)C)C(=O)N[C@@H](CCS(C)(=O)=O)C(=O)N[C@@H](CC(=O)O)C(=O)N[C@H](C(=O)O)[C@@H](C)O)C(C)C
# B8: TP811 (peptide)
# peptide: H[Aib]QGTFTSDYSKYLD[Aib]RAAQDFVK([AEEA-AEEA-γGlu-C16 diacid])WL[Met(O2)]DT-NH2
# modifications: N-terminus assumed
# SMILES: CC(C)C[C@H](NC(=O)[C@H](Cc1c[nH]c2ccccc12)NC(=O)[C@H](CCCCNC(=O)COCCOCCNC(=O)COCCOCCNC(=O)CC[C@H](NC(=O)CCCCCCCCCCCCCCC(=O)O)C(=O)O)NC(=O)[C@@H](NC(=O)[C@H](Cc1ccccc1)NC(=O)[C@H](CC(=O)O)NC(=O)[C@H](CCC(N)=O)NC(=O)[C@H](C)NC(=O)[C@H](C)NC(=O)[C@H](CCCNC(=N)N)NC(=O)C(C)(C)NC(=O)[C@H](CC(=O)O)NC(=O)[C@H](CC(C)C)NC(=O)[C@H](Cc1ccc(O)cc1)NC(=O)[C@H](CCCCN)NC(=O)[C@H](CO)NC(=O)[C@H](Cc1ccc(O)cc1)NC(=O)[C@H](CC(=O)O)NC(=O)[C@H](CO)NC(=O)[C@@H](NC(=O)[C@H](Cc1ccccc1)NC(=O)[C@@H](NC(=O)CNC(=O)[C@H](CCC(N)=O)NC(=O)C(C)(C)NC(=O)[C@@H](N)Cc1c[nH]cn1)[C@@H](C)O)[C@@H](C)O)C(C)C)C(=O)N[C@@H](CCS(C)(=O)=O)C(=O)N[C@@H](CC(=O)O)C(=O)N[C@H](C(N)=O)[C@@H](C)O
# B9: TP812 (peptide)
# peptide: H[Aib]QGTFTSDYSKYLDARAAK([AEEA-AEEA-γGlu-C16 diacid])EFVQWL[Met(O2)]DT-NH2
# modifications: N-terminus assumed
# SMILES: CC(C)C[C@H](NC(=O)[C@H](Cc1ccc(O)cc1)NC(=O)[C@H](CCCCN)NC(=O)[C@H](CO)NC(=O)[C@H](Cc1ccc(O)cc1)NC(=O)[C@H](CC(=O)O)NC(=O)[C@H](CO)NC(=O)[C@@H](NC(=O)[C@H](Cc1ccccc1)NC(=O)[C@@H](NC(=O)CNC(=O)[C@H](CCC(N)=O)NC(=O)C(C)(C)NC(=O)[C@@H](N)Cc1c[nH]cn1)[C@@H](C)O)[C@@H](C)O)C(=O)N[C@@H](CC(=O)O)C(=O)N[C@@H](C)C(=O)N[C@@H](CCCNC(=N)N)C(=O)N[C@@H](C)C(=O)N[C@@H](C)C(=O)N[C@@H](CCCCNC(=O)COCCOCCNC(=O)COCCOCCNC(=O)CC[C@H](NC(=O)CCCCCCCCCCCCCCC(=O)O)C(=O)O)C(=O)N[C@@H](CCC(=O)O)C(=O)N[C@@H](Cc1ccccc1)C(=O)N[C@H](C(=O)N[C@@H](CCC(N)=O)C(=O)N[C@@H](Cc1c[nH]c2ccccc12)C(=O)N[C@@H](CC(C)C)C(=O)N[C@@H](CCS(C)(=O)=O)C(=O)N[C@@H](CC(=O)O)C(=O)N[C@H](C(N)=O)[C@@H](C)O)C(C)C
# Biological target: human Glucagon receptor (GCGR) (human, UniProt P47871 26-477)
# Sequence (P47871 26-477): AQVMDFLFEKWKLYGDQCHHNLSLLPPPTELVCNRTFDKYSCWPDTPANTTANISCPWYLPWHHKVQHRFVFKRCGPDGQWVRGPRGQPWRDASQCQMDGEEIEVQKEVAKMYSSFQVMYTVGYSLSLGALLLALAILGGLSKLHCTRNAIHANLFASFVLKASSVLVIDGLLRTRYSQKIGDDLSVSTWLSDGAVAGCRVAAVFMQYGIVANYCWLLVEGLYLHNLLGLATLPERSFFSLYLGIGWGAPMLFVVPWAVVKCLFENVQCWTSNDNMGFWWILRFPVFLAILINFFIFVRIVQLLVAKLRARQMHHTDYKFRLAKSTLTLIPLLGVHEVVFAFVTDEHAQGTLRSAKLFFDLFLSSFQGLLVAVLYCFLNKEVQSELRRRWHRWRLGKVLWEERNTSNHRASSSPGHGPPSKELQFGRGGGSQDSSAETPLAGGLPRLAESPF
# Assay: cell-based or functional assay
row,Binder,GCGR EC50 human [pM]
1,B1,1560
2,B2,210
3,B3,1520
4,B4,895
5,B5,156
6,B6,2670
7,B7,3190
8,B8,210
9,B9,200

# Biological target: human GLP-1 receptor (GLP1R) (human, UniProt P43220 24-463)
# Assay: cell-based or functional assay
row,Binder,GLP1R EC50 human [pM]
1,B1,2670
2,B2,140
3,B3,710
4,B4,648
5,B5,78
6,B6,2920
7,B7,1140
8,B8,260
9,B9,88
